{
  "source": "patent US20060040861A1",
  "about": "“Method of treating, preventing, and diagnosing prostate cancer” (priority 2004, published 2006)",
  "key": {"[1]": {"tested_on": "LNCaP-FGC cells", "experiment": "MTT assay (cell growth / viability)", "assay_type": "cell-based, human", "conditions": "5 days", "procedure": "(§1) DU145 (1×10^3/well), PC-3 (1×10^3/well) and LNCaP-FGC (1.5×10^3/well) cells were seeded in 96-well plates 24 hours prior to serum starvation. Cells were starved of serum for 24 hours and then incubated in the serum-free medium with or without 12.5 μg/ml leptin for 5 days. 3-(4,5-dimethylthiazol-2-yl)-2,5-diphenyl tetrazolium bromide (MTT) was added to each well to a concentration of 0.5 mg/ml. After 3-hour incubation at 37° C., cells were lysed in 50% dimethylformamide and 20% SDS at 37° C. Optical densities (O.D.) at 550 nm and 670 nm were measured by a plate reader, and differential O.D. between 550 nm and 670 nm (O.D. 550 nm minus O.D. 670 nm) were determined. Each experiment was performed in quadruplicate, and the values are reported as mean±SD.\n(§2) DU145 (0.5-1.0×10^3/well), PC-3 (0.5-1.0×10^3/well), and LNCaP FGC (0.75-1.5×10^3/well) cells were seeded in 96-well plates 24 hours prior to serum starvation. Cells were starved of serum for 24 hours and then incubated in the serum-free medium with or without cytokine(s), DHT and/or doxorubicin at indicated concentrations for 5 days. MTT was added to each well to a concentration of 0.5 mg/ml. After being incubated at 37° C. for 3 hours, cells were lysed in 50% dimethylformamide and 20% SDS at 37° C. Optical densities (OD) at 550 and 670 nm were measured by a plate reader, and differential OD between 550 and 670 nm (OD 550 minus OD 670 nm) were determined. Each experiment was performed in quadruplicate, and the values were reported as mean±S.D."}, "[2]": {"tested_on": "PC-3 cells", "experiment": "MTT assay (cell growth / viability)", "assay_type": "cell-based, human", "conditions": "5 days", "procedure": "as §1, §2"}, "[3]": {"tested_on": "JNK", "experiment": "In vitro JNK assay on lysates of treated human cancer cells", "assay_type": "cell-based", "procedure": "(§3) Eighty-percent confluent prostate cancer cells were starved in the serum-free medium for 24 hours and then treated by 12.5 μg/ml leptin or 10 μg/ml anisomycin for the indicated periods. In some experiments, cells were pretreated with SP600125 prior to cytokine stimulation as described below. Cells were washed twice with cold PBS, harvested by a scraper and centrifuged for 10 minutes at 700×g at 4° C. The pellet was homogenized in the cell lysis buffer (20 mM HEPES, pH 7.9, 300 mM NaCl, 1 mM EDTA, 15% glycerol, 0.5% NP-40, 1 mM Na3VO4, 1 μg/ml leupeptin, 5 μg/ml aprotinin, 1 μg/ml pepstatin and 1 mM PMSF) and incubated at 4° C. with gentle rocking for 30 minutes. This homogenate was centrifuged for 5 minutes at 15,000×g, and the supernatant was saved as a cell lysate and stored at −80° C. until use.\nJNK activity was measured using the SAPK/JNK Assay Kit (Cell Signaling Technology Inc.) according to the manufacture's instructions. Briefly, JNK was precipitated in 250 μl of cell lysates (250 μg protein) with 2 μg of glutathione Sepharose beads immobilized by a recombinant fusion protein of the c-Jun N-terminus (1-89) and glutathione S-transferase as a JNK substrate. After being washed with the cell lysis buffer 3 times, the precipitates were incubated in 50 μl of the kinase buffer containing 100 μM ATP at 30° C. for 30 minutes. The reaction was stopped by addition of the SDS sample buffer. The N-terminal c-Jun (1-89) fusion protein was separated by SDS-polyacrylamide gel electrophoresis, and its phoshporylation was determined by Western blot analysis using anti-phospho-c-Jun (Ser-63) polyclonal antibody as described above. JNK protein levels in cell lysates were also measured by Western blot analysis using anti-JNK antibody to normalize sample variations.\n(§4) Seventy-percent confluent cells were deprived of serum for 24 hours, followed by treatment with 1 μg/ml f- or g-adiponectin or 10 μg/ml anisomycin for indicated periods. After being rinsed with cold phosphate-buffered saline, cells were harvested using a scraper and collected by centrifugation at 700×g for 10 minutes at 4° C. The cell pellets were then homogenized in cell lysis buffer (20 mM HEPES, pH 7.9, 300 mM NaCl, 1 mM Na3VO4, 1 μg/ml leupeptin, 5 μg/ml aprotinin, 1 μg/ml pepstatin, and 1 mM phenylmethylsulfonyl fluoride) and rocked gently for 30 minutes at 4° C. The homogenates were centrifuged at 15,000×g for 5 minutes at 4° C., and the supernatants were saved as cell lysates and stored at −80° C. until use.\nUsing the stress-activated protein kinase/JNK assay kit, JNK activity was assessed with a fusion protein of the c-Jun NH2 terminus (amino acids 1 to 89) and glutathione S-transferase as a substrate according to the manufacture's instructions with some modifications as reported before (M. Onuma, et al., supra, 2003). Briefly, JNK was precipitated in cell lysates (250-500 μg of protein) with 2 μg of glutathione-Sepharose beads immobilized by the fusion protein. The precipitates were rinsed with the cell lysis buffer three times, followed by incubation in 50 μl of the kinase buffer containing 100 μM ATP at 30° C. for 30 minutes. The reaction was terminated by adding the SDS sample buffer. The substrate fusion protein was separated by SDS-polyacrylamide gel electrophoresis, and its phosphorylation by JNK was determined by Western blot analysis using anti-phospho-c-Jun (Ser-63) polyclonal antibody. To normalize sample variations, JNK protein levels were also determined by Western blot analysis using anti-JNK antibody."}, "[4]": {"tested_on": "c-Jun", "experiment": "Western blot analysis of c-Jun phosphorylation in human cancer cells", "assay_type": "cell-based", "procedure": "as §3\nCell lysates containing 100 μg of protein were electrophoresed on 10% SDS-polyacrylamide gels and electrotransferred to PVDF membranes. Following the supplier's instructions, the membranes were washed, blocked and hybridized with anti-phospho-c-Jun (Ser-63 or Ser-73) polyclonal antibody that specifically recognizes a phosphorylated form of c-Jun. Bands were visualized using a Lumiglo reagent (Cell Signaling Technology Inc.). The membranes were then stripped and re-hybridized with anti-c-Jun antibody that detects both phosphorylated and unphosphorylated forms to normalize sample variations.\nSP600125 was dissolved in DMSO to make a stock solution. Eighty-percent confluent prostate cancer cells were serum-starved for 24 hours and pretreated with SP600125 at indicated concentrations for 30 minutes, followed by leptin treatment (12.5 μg/ml): 15 minutes for Western blot analysis or 20 hours for thymidine incorporation assays. DMSO-treated cells were employed as controls.\nas §4\nCell lysates (100 μg of protein) were electrophoresed on 10% SDS-polyacrylamide gels and transferred to polyvinylidene difluoride membranes. […]"}, "[5]": {"conditions": "DU145, PC-3, LNCaP-FGC and HepG2 cells, 1.0 μg/ml"}},
  "data": [
    {"molecule": "leptin: Recombinant human leptin purchased from R&D Systems; major adipose cytokine", "values": [
      {"measurement": "live cell mass (MTT)", "setting": "[1]; 12.5 μg/ml leptin, serum-free", "value": "did not influence"},
      {"measurement": "living cells (MTT)", "setting": "[2]; 12.5 μg/ml leptin, serum-free", "value": "increased living cells"},
      {"measurement": "time of peak JNK activation after addition", "setting": "[3]; DU145, 12.5 μg/ml leptin", "value": 15, "unit": "min"},
      {"measurement": "time of return of JNK activation to the basal level", "setting": "[3]; DU145, 12.5 μg/ml leptin", "value": 45, "unit": "min"},
      {"measurement": "JNK activity", "setting": "[3]; DU145, 12.5 μg/ml leptin, up to 60 minutes", "value": "stimulated JNK activity"},
      {"measurement": "JNK activity", "setting": "[3]; LNCaP-FGC, 12.5 μg/ml leptin, up to 60 minutes", "value": "did not influence JNK activity"},
      {"measurement": "time of peak JNK activation after addition", "setting": "[3]; PC-3, 12.5 μg/ml leptin", "value": 15, "unit": "min"},
      {"measurement": "JNK activity", "setting": "[3]; PC-3, 12.5 μg/ml leptin, up to 60 minutes", "value": "stimulated JNK activity"},
      {"measurement": "c-Jun phosphorylation on Ser-63 and Ser-73", "setting": "[4]; DU145 and PC-3 cells, 12.5 μg/ml leptin", "value": "stimulated c-Jun phosphorylation"}
    ]},
    {"molecule": "f-adiponectin: Recombinant human full-length (non-proteolytic) adiponectin, about 30-kDa polypeptide; lot mainly HMW form (protein, UniProt Q15848 1-244, looked up, full-length, Recombinant human full-length (non-proteolytic) adiponectin, about 30-kDa polypeptide; lot mainly HMW form) MLLLGAVLLLLALPGHDQETTTQGPGVLLPLPKGACTGWMAGIPGHPGHNGAPGRDGRDGTPGEKGEKGDPGLIGPKGDIGETGVPGAEGPRGFPGIQGRKGEPGEGAYVYRSAFSVGLETYVTIPNMPIRFTKIFYNQQNHYDGSTGKFHCNIPGLYYFAYHITVYMKDVKVSLFKKDKAMLFTYDQYQENNVDQASGSVLLHLEVGDQVWLQVYGEGERNGLYADNDNDSTFTGFLLYHDTN", "values": [
      {"measurement": "effect on DHT-stimulated cell growth (MTT)", "setting": "[1]; 1 μg/ml f-adiponectin, 10 nM DHT", "value": "significantly suppressed"},
      {"measurement": "effect on the conditioned medium stimulation of cell growth (MTT)", "setting": "[1]; 1 μg/ml f-adiponectin", "value": "drastically suppressed"},
      {"measurement": "effect on the doxorubicin suppression of cell growth (MTT)", "setting": "[1]; 1 μg/ml f-adiponectin", "value": "enhanced the doxorubicin suppression"},
      {"measurement": "cell growth (MTT) at concentrations up to 1 μg/ml", "setting": "[1]; serum-free", "value": "inhibited cell growth in a dose-dependent manner"},
      {"measurement": "concentration at which the inhibitory effect on cell growth saturated", "setting": "[1]; MTT", "value": 1, "unit": "µg/mL"},
      {"measurement": "effect on the conditioned medium stimulation of cell growth (MTT)", "setting": "[2]; 1 μg/ml f-adiponectin", "value": "drastically suppressed"},
      {"measurement": "effect on the doxorubicin suppression of cell growth (MTT)", "setting": "[2]; 1 μg/ml f-adiponectin", "value": "enhanced the doxorubicin suppression"},
      {"measurement": "cell growth (MTT) at concentrations up to 1 μg/ml", "setting": "[2]; serum-free", "value": "inhibited cell growth in a dose-dependent manner"},
      {"measurement": "concentration at which the inhibitory effect on cell growth saturated", "setting": "[2]; MTT", "value": 1, "unit": "µg/mL"},
      {"measurement": "time of peak JNK activation after addition", "setting": "[3]; [5]", "value": 10, "unit": "min"},
      {"measurement": "JNK activation", "setting": "[3]; DU145, PC-3, LNCaP-FGC and HepG2 cells, 1.0 μg/ml, up to 60 minutes", "value": "further stimulated JNK activation"},
      {"measurement": "c-Jun phosphorylation at Ser-63", "setting": "[4]; [5]", "value": "augmented c-Jun phosphorylation at Ser-63"},
      {"measurement": "c-Jun phosphorylation at Ser-73", "setting": "[4]; DU145, PC-3 and HepG2 cells, 1.0 μg/ml", "value": "stimulated Ser-73 phosphorylation"},
      {"measurement": "c-Jun phosphorylation at Ser-73", "setting": "[4]; LNCaP-FGC cells, 1.0 μg/ml", "value": "quite modest"}
    ]}
  ]
}
